This is an account of results in patent US20190055314A1.

The target of assay [1] is full-length human CD137 on the cell surface (human) (UniProt Q07011). The experiment in a line: flow cytometry, yeast display [Cont.]. (In general: Flow cytometry measures light scatter and fluorescence of single cells or particles in a stream.)
A further assay addresses Hu_CRD2-CRD3 (human) (UniProt Q07011). Nature of the assay: flow cytometry, yeast display [Cont.].
Another assay addresses Hu_CRD3-CRD4 (human) (UniProt Q07011). Nature of the assay: flow cytometry, yeast display [Cont.].
Assay [2] addresses Hu_CRD2-CRD3-CRD4 (human) (UniProt Q07011). Nature of the assay: flow cytometry, yeast display [Cont.].
For the next assay, the target named is Hu_CRD4 (human) (UniProt Q07011). Nature of the assay: flow cytometry, yeast display [Cont.].
Chain of Hu_CRD4 (human) (Q07011 119-159 limits assumed): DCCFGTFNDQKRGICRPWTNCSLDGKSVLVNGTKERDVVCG
Assay [3] concerns the target Hu_CRD1-CRD2-CRD3 (human) (UniProt Q07011). Nature of the assay: flow cytometry, yeast display [Cont.].
Assay [4] deals with full-length mouse CD137 on the cell surface (mouse) (UniProt P20334). The experiment in a line: flow cytometry, yeast display [Cont.].
Chain of full-length mouse CD137 on the cell surface (mouse) (P20334 24-178 limits assumed): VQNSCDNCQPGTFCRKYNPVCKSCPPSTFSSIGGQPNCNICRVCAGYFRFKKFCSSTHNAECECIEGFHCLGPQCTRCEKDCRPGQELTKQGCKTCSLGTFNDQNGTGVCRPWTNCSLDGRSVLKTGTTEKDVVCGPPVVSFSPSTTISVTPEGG
The target of a further assay is Hu_CRD1-CRD2 (human) (UniProt Q07011). Nature of the assay: flow cytometry, yeast display [Cont.].
Chain of Hu_CRD1-CRD2 (human) (Q07011 24-86 limits assumed): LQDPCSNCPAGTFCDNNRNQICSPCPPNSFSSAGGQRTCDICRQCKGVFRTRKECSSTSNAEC
For another assay, the target named is Hu_CRD2 (human) (UniProt Q07011). The experiment in a line: flow cytometry, yeast display [Cont.].
Chain of Hu_CRD2 (human) (Q07011 46-86 limits assumed): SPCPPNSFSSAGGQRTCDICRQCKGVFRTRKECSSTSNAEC
Assay [5] deals with full-length monkey CD137 on the cell surface (cynomolgus monkey). The experiment in a line: flow cytometry, PMA/ionomycin-activated monkey T cells, antibody 100 nM.
Chain of full-length monkey CD137 on the cell surface (cynomolgus monkey) (Q07011 other isoform, or with tags, fused parts or gaps): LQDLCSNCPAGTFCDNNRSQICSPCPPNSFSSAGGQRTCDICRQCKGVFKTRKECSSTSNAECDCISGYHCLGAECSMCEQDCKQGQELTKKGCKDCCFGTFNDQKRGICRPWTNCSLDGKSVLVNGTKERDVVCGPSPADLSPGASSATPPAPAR
Assay [6] deals with CD27 overexpressed on HEK293F cells (UniProt P26842). Nature of the assay: flow cytometry, HEK293F cells expressing the receptor, antibody 100 nM [Cont.].
Chain of CD27 overexpressed on HEK293F cells (P26842 20-260 limits assumed): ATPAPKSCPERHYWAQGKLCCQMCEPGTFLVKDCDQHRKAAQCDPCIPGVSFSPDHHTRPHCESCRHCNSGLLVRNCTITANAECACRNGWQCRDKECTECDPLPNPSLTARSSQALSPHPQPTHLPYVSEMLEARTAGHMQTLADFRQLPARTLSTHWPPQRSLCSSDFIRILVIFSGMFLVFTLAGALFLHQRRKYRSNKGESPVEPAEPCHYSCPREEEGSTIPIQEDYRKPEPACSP
For assay [7], the target named is OX40 overexpressed on HEK293F cells (UniProt P43489). Described as above.
Chain of OX40 overexpressed on HEK293F cells (P43489 29-277 limits assumed): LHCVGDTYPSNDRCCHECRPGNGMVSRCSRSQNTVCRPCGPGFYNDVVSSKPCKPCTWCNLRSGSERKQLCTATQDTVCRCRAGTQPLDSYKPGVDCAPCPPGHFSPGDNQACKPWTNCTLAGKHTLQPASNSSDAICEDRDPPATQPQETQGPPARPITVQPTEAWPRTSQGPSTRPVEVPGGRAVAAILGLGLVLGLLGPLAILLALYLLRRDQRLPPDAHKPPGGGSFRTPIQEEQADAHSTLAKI
Assay [8] has as its target full-length human CD137 on the cell surface (human) (UniProt Q07011). Described as above.
For assay [9], the target named is CD40 overexpressed on HEK293F cells (UniProt P25942). The assay is described as above.
Chain of CD40 overexpressed on HEK293F cells (P25942 21-277 limits assumed): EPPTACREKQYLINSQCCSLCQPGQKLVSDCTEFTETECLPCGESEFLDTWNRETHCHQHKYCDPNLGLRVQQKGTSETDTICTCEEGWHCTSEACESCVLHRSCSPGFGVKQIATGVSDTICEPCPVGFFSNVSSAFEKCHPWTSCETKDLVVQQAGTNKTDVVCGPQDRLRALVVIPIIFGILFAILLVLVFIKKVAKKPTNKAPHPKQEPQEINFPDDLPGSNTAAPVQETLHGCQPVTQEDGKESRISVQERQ
The next assay deals with CD95. The description is as above.
Chain of CD95 (chain, as listed by the source limits assumed): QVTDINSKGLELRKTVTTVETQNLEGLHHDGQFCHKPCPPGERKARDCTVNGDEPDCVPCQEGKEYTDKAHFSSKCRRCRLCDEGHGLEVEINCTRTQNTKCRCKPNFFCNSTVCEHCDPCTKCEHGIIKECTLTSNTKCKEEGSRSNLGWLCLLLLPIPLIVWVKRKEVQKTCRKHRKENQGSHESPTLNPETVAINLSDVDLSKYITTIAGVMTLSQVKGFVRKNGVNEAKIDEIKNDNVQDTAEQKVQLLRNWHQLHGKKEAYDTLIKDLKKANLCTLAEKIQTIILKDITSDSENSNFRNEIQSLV
In assay [10] the target is GITR overexpressed on HEK293F cells (UniProt Q9Y5U5). The assay is described as above.
Chain of GITR overexpressed on HEK293F cells (Q9Y5U5 26-241 limits assumed): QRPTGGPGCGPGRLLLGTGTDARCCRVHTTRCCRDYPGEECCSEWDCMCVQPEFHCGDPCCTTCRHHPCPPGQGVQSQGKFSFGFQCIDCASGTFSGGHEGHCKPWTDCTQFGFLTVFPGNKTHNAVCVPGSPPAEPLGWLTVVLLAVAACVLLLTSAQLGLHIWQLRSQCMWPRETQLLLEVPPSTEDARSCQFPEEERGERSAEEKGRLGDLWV
Assay [11] concerns the target purified C1q component of the human complement (human) (UniProt P02745). Nature of the assay: ELISA, direct binding of antibody to purified human complement C1q, A450.

Chain of full-length human CD137 on the cell surface (human) (Q07011 18-255): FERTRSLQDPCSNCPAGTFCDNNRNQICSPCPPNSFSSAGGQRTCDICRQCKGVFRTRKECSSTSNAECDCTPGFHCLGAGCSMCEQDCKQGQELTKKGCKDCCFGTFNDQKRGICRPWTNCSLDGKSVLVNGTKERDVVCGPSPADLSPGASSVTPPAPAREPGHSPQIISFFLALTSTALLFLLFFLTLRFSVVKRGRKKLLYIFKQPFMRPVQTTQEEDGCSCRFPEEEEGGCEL
Chain of Hu_CRD3-CRD4 (human) (Q07011 87-159 limits assumed): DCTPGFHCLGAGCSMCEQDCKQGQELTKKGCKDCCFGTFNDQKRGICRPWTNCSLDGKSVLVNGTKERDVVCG
Chain of Hu_CRD1-CRD2-CRD3 (human) (Q07011 24-118 limits assumed): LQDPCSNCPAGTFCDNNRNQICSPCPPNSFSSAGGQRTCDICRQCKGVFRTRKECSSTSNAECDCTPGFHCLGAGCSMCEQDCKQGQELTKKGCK
Chain of Hu_CRD2-CRD3 (human) (Q07011 46-118 limits assumed): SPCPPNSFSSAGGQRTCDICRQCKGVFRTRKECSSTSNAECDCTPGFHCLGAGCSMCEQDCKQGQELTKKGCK
Chain of Hu_CRD2-CRD3-CRD4 (human) (Q07011 46-159 limits assumed): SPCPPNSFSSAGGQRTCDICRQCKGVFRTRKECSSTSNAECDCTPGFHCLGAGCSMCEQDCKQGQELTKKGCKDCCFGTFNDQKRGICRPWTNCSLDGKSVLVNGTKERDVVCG
Chain of purified C1q component of the human complement (human) (P02745 23-245, chain 1 of 3): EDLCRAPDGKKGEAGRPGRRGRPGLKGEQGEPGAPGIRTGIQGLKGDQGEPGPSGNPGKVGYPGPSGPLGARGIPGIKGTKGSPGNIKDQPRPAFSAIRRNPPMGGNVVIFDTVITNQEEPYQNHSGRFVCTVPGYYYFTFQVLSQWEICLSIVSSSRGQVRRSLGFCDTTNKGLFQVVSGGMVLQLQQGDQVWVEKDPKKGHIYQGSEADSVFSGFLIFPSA
Chain of purified C1q component of the human complement (human) (P02746 28-253, chain 2 of 3, further chain): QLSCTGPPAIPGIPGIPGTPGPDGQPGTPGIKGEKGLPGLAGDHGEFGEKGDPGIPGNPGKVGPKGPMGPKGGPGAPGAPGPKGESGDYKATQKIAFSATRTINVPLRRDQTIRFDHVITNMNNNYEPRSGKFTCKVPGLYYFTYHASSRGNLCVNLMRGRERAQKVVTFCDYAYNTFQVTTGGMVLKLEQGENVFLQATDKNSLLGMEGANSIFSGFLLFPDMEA
Chain of purified C1q component of the human complement (human) (P02747 29-245, chain 3 of 3, further chain): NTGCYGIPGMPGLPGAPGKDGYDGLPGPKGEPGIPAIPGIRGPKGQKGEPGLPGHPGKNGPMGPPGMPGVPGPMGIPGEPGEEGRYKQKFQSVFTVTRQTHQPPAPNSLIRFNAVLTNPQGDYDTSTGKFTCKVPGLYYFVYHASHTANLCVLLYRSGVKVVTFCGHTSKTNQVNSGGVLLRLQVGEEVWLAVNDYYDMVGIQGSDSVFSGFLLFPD

For Isotype (antibody), the % in upper right quadrant in assay [1] turned out to be 0.14%; in the assay with Hu_CRD2-CRD3 (human), 0.14%; in the assay with Hu_CRD3-CRD4 (human) it was 0.17%; in assay [2], 0.2%; with Hu_CRD4 (human), 0.23%; in [3], 0.1%. The % in upper right quadrant in [4] was 0.18%; with Hu_CRD1-CRD2 (human), 0.15%; with Hu_CRD2 (human), 0.18%. Also, the Mean in [1] is 9600; with Hu_CRD2-CRD3 (human), 6280; in the assay with Hu_CRD3-CRD4 (human), 6860; in assay [2] it was 15000; with Hu_CRD4 (human), 11000; in [3], 3680. For the same substance, the Mean worked out at 14800 in [4]; 5560 in the assay with Hu_CRD1-CRD2 (human); 4650 in the assay with Hu_CRD2 (human); 48100 in [6]; 5300 in assay [7]; 7360 in assay [8]. The results for the Mean (in the assay with CD95; in assay [10]) were 5140 and 8970, respectively. In assay [5], this substance showed a % of cells positive for antibody binding of 1.5%. This substance showed a Median in [9] of 5730.
Broadly, the EC50 (read off the curve) is the midpoint of the concentration-response curve. For the substance human IgG1 isotype control antibody, the EC50 (read off the curve) in assay [11] came out at 2 nM.
In the assay with Hu_CRD2 (human), “mouse CD137L (from UniProt P41274 104-309) (ligand)” came in with a % in upper right quadrant of 0.16% and a Mean of 14600.
